Test: yeast display, Sf9 membrane polyspecificity reagent, FACS + sequencing; frameworks hold sequencing errors
Outline: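 Synthetic nanobody libraries on Saccharomyces cerevisiae BJ5465 were galactose-induced for 36–48 hours, stained 1 hour at 4 °C with 10% biotinylated, detergent-solubilized Sf9 membrane reagent and enriched on streptavidin microbeads. FACS then separated cells into low and high (top ~1%) gates by anti-HA (expression) and streptavidin (reagent binding) fluorescence. Genes were colony-PCR amplified, MiSeq 2 × 250 sequenced and CDR-length filtered. A clone's polyreactivity label is that of its gate of origin.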

Sequence | polyreactivity (PSR sort gate)
QVQLVESGGGLVQAGGSLRLSCAASGSTFTSYAMGWYRQAPGKERELVASISRSGGSTYYADSVKGRFTISRDNAKNTVYLQMNSLKPEDTAVYYCAVRSVTWHGYWGQGTQVTVSS | high polyreactivity
QVQLVESGGGLVQAGGSLRLSCAASGSTFTTNAMGWYRQAPGKERELVAAISWSGTTTYYADSVKGRFTISRDNAKNTVYLQMNSLKPEDTAVYYCAAQVVSGTVAYLDFGYWGQGTQVTVSS | low polyreactivity
QVQLVESGGGLVQAGGSLRLSCAASGSTFTTNVMGWYRQAPGKERELVAAISWSSGSTYYADSVKGRFTISRDNAKNTVYLQMNSLKPEDTAVYYCAARLVIFYPYSRYYYWGQGTQVTVSS | high polyreactivity
QVQLVESGGGLVQAGGSLRLSCAASGSTFTTYAMGWYRQAPGKEREFVASIRWRGGHTYYADSVKGRFTISRDNAKNTVYLQMNSLKPEDTAVYFCARRVDYISSKYGYWGQGTQVTVSS | high polyreactivity
QVQLVESGGGLVQAGGSLRLSCAASGSTFTVNAMGLYRQAPGKERELVAAINWSGGSTYYADSVKGRFTISRDHAKNTVYLQMNSLKPEDTAVYYCNKDREPYGYWSFDYWGQGTQVTLSS | low polyreactivity
QVQLVESGGGLVQAGGSLRLSCAASGSTFTVNAMGWYRQAPGKERELVAVIRKSGTSTYYADSVKGRFSISRDNAKNTVYLQMNSLKPEDTAVYYCAAGGPSTLDDYWGQGTQVTVSS | low polyreactivity
QVQLVESGGGLVQAGGSLRLSCAASGSTFTWYAMGWYRQAPGKERELVAAISRGGSTNYADSVKGRFTISRDNAKNTVYLQMNSLKPEDTAVYYCAAESYWRDDYWGQGTQVTVSS | low polyreactivity
QVQLVESGGGLVQAGGSLRLSCAASGSTFTWYAMGWYRQAPGKERELVADISYGGGSTYYADSVKGRFTISRDNAKNTVYLQMNSLKPEDTAVYYCAADYRWYQRGNPMDYWGQGTQVNVSS | low polyreactivity
QVQLVESGGGLVQAGGSLRLSCAASGSTFTWYAMGWYRQAPGKERELVADISYGGGSTYYADSVKGRFTISRDNAKNTVYLQMNSLKPEDTAVYYCAVDDGFAYSYDWTYRYAEYYYWGQGTQVTVSS | low polyreactivity
QVQLVESGGGLVQAGGSLRLSCAASGSTFTWYTMGWYRQAPGKERELVAAISSSGGSTYYADSVKGRFTISRDNAKNTVYLQMNSLKPEDTAVYYCARRFPSPLYTRYDYWGQGTQVTVSS | high polyreactivity
QVQLVESGGGLVQAGGSLRLSCAASGSTFTYNAMGWYRQAPGKERELVASISSGTTTYYADSVKGRFTISRDNAKNTVYLQMNCLKPEDTAVYYCAVDSWSRVQGWLAHYYDYWGQGTQVTVSS | low polyreactivity
QVQLVESGGGLVQAGGSLRLSCAASGSTFTYNTMGWYRQAPGKERELVAAISWGGGGTYYADSVKGRFTISRDNAKNSVYLQMNSLKRVDTAVYYCKADPWWDYGTFDYWGQGTQVTVSS | low polyreactivity
QVQLVESGGGLVQAGGSLRLSCAASGSTFTYNTMGWYRQAPGKERELVAGITKSGGSTYYADSVKGRFTISRDTAKNTVYLQMNSLKPEDTAVYYCATSTSRRYGSRHNYWGQGTQVTVSS | high polyreactivity
QVQLVESGGGLVQAGGSLRLSCAASGSTFTYYAMGWYRQAPGKEREFVATIRRSGGRTNYADSVKGRFTISRDNAKNTVYLQMNSLKPEDTAVYYCNARYTNVRGFDYWGQGTQVTVSS | high polyreactivity
QVQLVESGGGLVQAGGSLRLSCAASGSTFTYYAMGWYRQAPGKEREFVATITYSGGSTYYADSVKGRFTISRDNAKNTVYLQMNSLKPEDTAVYYCAARVGRPSLVAAKYDYWGQGTQVTVSS | high polyreactivity
QVQLVESGGGLVQAGGSLRLSCAASGSTFTYYAMGWYRQAPGKERELVAAISRRGGSTYYADSVKGRFTISRDNAKNTVYLQMNSLKPEDTAVYYCAAASHGRFYYWGQGTQVTVSS | high polyreactivity
QVQLVESGGGLVQAGGSLRLSCAASGSTFTYYAMGWYRQAPGKERELVAAITGGGSTNYADSVKGRFTISRDNAKNTVYLQMNSLKPEDTAVYYCAARTARYYYGWRYTGEYGYWGQGTQVTVSS | high polyreactivity
QVQLVESGGGLVQAGGSLRLSCAASGSTFTYYAMGWYRQAPGKERELVAAITRRGGSTYYADSVKGRFTISRDNAKNTVYLQMNSLIPEDTAVYYCAKSTQIRAYIWDPYRISTYGYWGQGTQVTVSS | high polyreactivity
QVQLVESGGGLVQAGGSLRLSCAASGSTFTYYAMGWYRQAPGKERELVASISSTTGSTYYADSVKGRFTISRDNAKNTVYLQMNSLKPEDTAVYYCAAERVYPWYRYYYWGQGTQVTVSS | low polyreactivity
QVQLVESGGGLVQAGGSLRLSCAASGSTFVANAMGWYRQAPGKERELVAAISFNRGGNTYYADSVKGRFTISRDNAKNTVYLQMNSLKPEDTAVYYCAARNSYGNWRYYYWGQGTQVTVSS | high polyreactivity
QVQLVESGGGLVQAGGSLRLSCAASGSTFVDNDMGWYRQAPGKERELVAAAITARGGSTYYADSVKGRFTISRDNAKNTVYLQMNSLKPEDTAVYYCAAGRPGELDYWGQGTQVTVSS | low polyreactivity

Sequence | polyreactivity (PSR sort gate)
QVQLVESGGGLVQAGGSLRLSCAASGSTFVDYAMGWYRQAPGKERELVAAINSDGGGTYYADSVKGRFTISRDNAKNTVYLQMNSLKPEDTAVYYCNVEYEDYYAQRYGYDYWGQGTQVTVSS | low polyreactivity
QVQLVESGGGLVQAGGSLRLSCAASGSTFVDYAMGWYRQAPGKERELVAGINGSGGSTYYADSVKGRFTISRDNAKNTVYLQMNSLKPEDTAVYYCAKDGSNRLALPAWDYNYWGQGTQVTVSS | low polyreactivity
QVQLVESGGGLVQAGGSLRLSCAASGSTFVFYVMVWYRQAPGKERQLVAAITGSTTSTYYAVSVKGRFTISRDNAKNTVYLQMNSLKPEDTAVYYCAAEVLRGRGFGYWGQGTQVCVSS | high polyreactivity
QVQLVESGGGLVQAGGSLRLSCAASGSTFVGNAMGWYRQAPVKERELVATISNSGGHTFYADSVKGRFTISRDNAKNTVYLQMNSLKPEDTAVYYCAASTSGAIRRDGYWGQGTQVTVSS | low polyreactivity
QVQLVESGGGLVQAGGSLRLSCAASGSTFVGYAMGWYRQAPGKERELVASITRRGGSTYYADSVKGRFTISRDNAKNTVYLQMNSLKPEDTAVYYCATPLYKTATWRAYEYWGQGTQVTVSS | high polyreactivity
QVQLVESGGGLVQAGGSLRLSCAASGSTFVGYAMGWYSPAPGKERELVADIDSIGGSTYYADSVKGRFTISRDYANNTVYLQINSLKPEDTAVFYCAARRFDTALVLYDYWGPGTQVTVSS | low polyreactivity
QVQLVESGGGLVQAGGSLRLSCAASGSTFVGYAMVWYRQAPGKERELVAAISYSGGSTYYADSVKGRFTISRDNAKNTVYLQMNSLKPEDTAVYYCAAEWSRHYYSGPRYDSWGQGSQVTVSS | low polyreactivity
QVQLVESGGGLVQAGGSLRLSCAASGSTFVGYTMGWYRQAPGKERELVASITSDGSTNYADSVKGRFTISRDNAKNTVYLQMNSLKREDTAVYYCNADWSSLYVGEFDYWGQGTQVTVSS | low polyreactivity
QVQLVESGGGLVQAGGSLRLSCAASGSTFVGYVMGWYRQAPGKERELVAAITRSGTSTYYADSVKGRFTISRDNAKNTVYLQMNSLKPEDTAVYYCARRYVSSDYYYWGQGTQVTVSS | low polyreactivity
QVQLVESGGGLVQAGGSLRLSCAASGSTFVHYAMGWYRQAPGKERELVAAINDGGSTHYADSVKGRFTISRDNAKNTVYLQMHSLKPEDTAVYYCAAEYVWYRYPDYWGAYDYWGQGTQVTVSS | low polyreactivity
QVQLVESGGGLVQAGGSLRLSCAASGSTFVKNTMGWYRQAPGKERELVAAIRSSGGSTYYADSVKGRFTISRDNAKNTVYLQMNSLKPEDTAVYYCAAGRGPEGTDDSWGQGTQVTVSS | high polyreactivity
QVQLVESGGGLVQAGGSLRLSCAASGSTFVKYAMGWYRQAPGKERELVAAINRSGASTYYADSVKGRFTISRDNAKNTVYLQMNSLKPEDTAVYYCAARFSWVGYYWGQGTQVTVSS | high polyreactivity
QVQLVESGGGLVQAGGSLRLSCAASGSTFVKYAMGWYRQAPGKERELVAAITDGGGGTFYADSVKGRFTISRDNGLNTVYLQMNSLNPEDTAVFYCNVGVSSAEDFDYWGQGTQVTVSS | low polyreactivity
QVQLVESGGGLVQAGGSLRLSCAASGSTFVKYVMGWYRQAPGKERELVAAISRSSVRTSYADSVKGRFTISRDNAKNTVYLQMNSLKPEDTAVYYCAAEYQYGGTTFDYWGQGTQVTVSS | high polyreactivity
QVQLVESGGGLVQAGGSLRLSCAASGSTFVLNAMGWYRQAPGKERELVAAINLDSGNTNYADSVKGRFTISRDNAKNTVYLQMNSLKPEDTAVYYCNTDVKFGGTAYDYWGQGTQVTVSS | low polyreactivity
QVQLVESGGGLVQAGGSLRLSCAASGSTFVLYAMGWDRQAPGKERELVAAISGGATTTYADSVKGRFTISRDNAKNTVYLQMNSLKPEDTAVYSCAADFSTFVVSGAAMDYWGQGTQVTVSS | low polyreactivity
QVQLVESGGGLVQAGGSLRLSCAASGSTFVLYAMGWYRQAPGKERELVADITWSGGSTYYADSVKGRFTISRDNAMNTVYLLMNSLKPEDTAVYYCAARYPWVYYDFDYWGQGTQVTVSS | low polyreactivity
QVQLVESGGGLVQAGGSLRLSCAASGSTFVLYAMGWYRQAPGKERELVAVISWSGGSTYYADSVKGRFTISRDNAKNTVYLQMNSLKPEDTAVYYCAKRYRVSYYPYADPYGYWGQGTQVTVSS | low polyreactivity
QVQLVESGGGLVQAGGSLRLSCAASGSTFVLYANGWYRQAPGKERELVAASTRRGGDTYYADSVKGRFTISRDNATNTVYLQMNSLKPEDTAVDYCATDYTTYGRYYYWGQGTQVTVSS | low polyreactivity
QVQLVESGGGLVQAGGSLRLSCAASGSTFVNNAMGWYRQAPGKERELVAAISKTGGRTRYADSVKGRFTISRDNAKNTVYLQMNSLKPEDTAVYYCAARYYGGGYNYWGQGTQVTVSS | high polyreactivity

Reference: the nanobody polyreactivity screen of Harvey et al. (2022)
